Assay results taken from patent publication US9969784B2, “Compositions and methods for modulation of immune function” (THE CHILDREN'S HOSPITAL OF PHILADELPHIA, priority 2013, dated 2018).

Assays:
Itch = biological target: T1, Itch (Homo sapiens, UniProt Q96J02); assay: ubiquitin charging assay (cell free), Itch; assay type: biochemical; conditions: E1, E2, ubiquitin, ATP and Mg++, then EDTA, Itch added with the substance
T1 construct: made in house
Method: FIGS. 1A-1D. Ndfip1 and Ndfip2 promote ubiquitin charging of Itch. FIG. 1A: E1, E2, ubiquitin, ATP and Mg++ were incubated together to prepare the E2 for ubiquitin transfer. EDTA was added to prevent further transfer of ubiquitin from E1 to E2. This ensures that only a single ubiquitin will be transferred. Itch was then added to the reaction with or without Ndfip1 or Ndfip2. […] FIG. 1C: Schematic diagram of auto-inhibition by Itch and activation by Ndfip1. FIG. 1D: Ndfip peptide mimics therapeutically activate
(§1) There are 9 members of the Nedd4-family of E3 ubiquitin ligases. These ligases are unusual in that there is a high degree of sequence similarity. All family members are composed of a HECT domain (the catalytic subunit), 2-4 WW domains, and a single C2 domain. Auto-inhibition of family members has been described by others, and different mechanisms of auto-inhibition have been proposed. […] We have devised a new way to look at auto-inhibition, namely by using a ubiquitin charging assay which is the initial event in activating Nedd4-family E3 ubiquitin ligases. Ubiquitin charging occurs when an E2 ubiquitin conjugating enzyme transfers ubiquitin to the catalytic cysteine of the Nedd4-family E3 ligase. […] We have determined that Ndfip1 and Ndfip2 are not required for Itch to bind the E2, as association between E2 and Itch occur in the absence of Ndfip1 and Ndfip2. […]

Nedd4 = assay: ubiquitin charging assay, Nedd4; assay type: biochemical; conditions: carried out for 30 seconds
Method: FIG. 8. Multiple Nedd4-family members likely share this mechanism of auto-inhibition and relief by Ndfip1 and Ndfip2. Nedd4 and Itch were expressed, purified and tested in the ubiquitin charging assay in the presence or absence of Ndfip1 or Ndfip2 as shown. Neither Itch nor Nedd4 were charged with ubiquitin in the assay when Ndfip1 or Ndfip2 were omitted from the assay. These assays were carried out for 30 seconds.
as §1, with “ligase. This event is absolutely required for catalytic activity of the E3 ligase.” for “ligase.”

Nedd4, sequence (P46934 whole entry, species assumed): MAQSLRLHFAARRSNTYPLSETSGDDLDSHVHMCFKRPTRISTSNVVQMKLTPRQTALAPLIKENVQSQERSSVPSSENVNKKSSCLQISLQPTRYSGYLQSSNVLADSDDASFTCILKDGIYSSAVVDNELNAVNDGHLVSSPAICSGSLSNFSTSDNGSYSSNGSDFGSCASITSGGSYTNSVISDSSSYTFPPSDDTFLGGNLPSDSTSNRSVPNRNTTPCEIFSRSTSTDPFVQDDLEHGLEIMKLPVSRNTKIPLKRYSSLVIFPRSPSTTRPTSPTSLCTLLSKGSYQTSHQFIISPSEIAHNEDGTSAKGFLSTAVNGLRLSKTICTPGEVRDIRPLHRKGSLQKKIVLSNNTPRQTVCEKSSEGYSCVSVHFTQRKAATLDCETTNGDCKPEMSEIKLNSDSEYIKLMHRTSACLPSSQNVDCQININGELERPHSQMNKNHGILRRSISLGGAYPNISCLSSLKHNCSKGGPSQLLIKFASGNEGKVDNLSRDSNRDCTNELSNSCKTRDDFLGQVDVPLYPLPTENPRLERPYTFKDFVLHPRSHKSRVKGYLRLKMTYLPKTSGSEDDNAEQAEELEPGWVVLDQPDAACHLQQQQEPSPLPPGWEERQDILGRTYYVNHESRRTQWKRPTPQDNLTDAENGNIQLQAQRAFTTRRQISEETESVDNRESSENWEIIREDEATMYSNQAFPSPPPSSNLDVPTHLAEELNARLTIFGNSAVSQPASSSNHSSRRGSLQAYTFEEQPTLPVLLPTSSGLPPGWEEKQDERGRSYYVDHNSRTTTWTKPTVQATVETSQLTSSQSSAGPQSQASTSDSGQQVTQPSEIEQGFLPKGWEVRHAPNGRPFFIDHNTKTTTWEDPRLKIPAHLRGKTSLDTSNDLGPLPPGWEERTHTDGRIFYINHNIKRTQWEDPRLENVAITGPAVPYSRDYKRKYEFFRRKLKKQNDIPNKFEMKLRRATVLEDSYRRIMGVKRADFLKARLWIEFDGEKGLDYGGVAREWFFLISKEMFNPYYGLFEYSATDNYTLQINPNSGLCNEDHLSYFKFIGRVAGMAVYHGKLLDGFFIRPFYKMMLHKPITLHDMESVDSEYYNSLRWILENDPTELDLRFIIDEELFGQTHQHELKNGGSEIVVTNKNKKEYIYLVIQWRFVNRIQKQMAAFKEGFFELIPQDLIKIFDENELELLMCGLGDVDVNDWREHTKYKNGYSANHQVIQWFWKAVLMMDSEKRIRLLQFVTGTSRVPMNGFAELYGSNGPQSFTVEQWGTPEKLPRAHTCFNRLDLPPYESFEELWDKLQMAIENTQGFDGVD
T1 sequence (Q96J02 whole entry, species assumed): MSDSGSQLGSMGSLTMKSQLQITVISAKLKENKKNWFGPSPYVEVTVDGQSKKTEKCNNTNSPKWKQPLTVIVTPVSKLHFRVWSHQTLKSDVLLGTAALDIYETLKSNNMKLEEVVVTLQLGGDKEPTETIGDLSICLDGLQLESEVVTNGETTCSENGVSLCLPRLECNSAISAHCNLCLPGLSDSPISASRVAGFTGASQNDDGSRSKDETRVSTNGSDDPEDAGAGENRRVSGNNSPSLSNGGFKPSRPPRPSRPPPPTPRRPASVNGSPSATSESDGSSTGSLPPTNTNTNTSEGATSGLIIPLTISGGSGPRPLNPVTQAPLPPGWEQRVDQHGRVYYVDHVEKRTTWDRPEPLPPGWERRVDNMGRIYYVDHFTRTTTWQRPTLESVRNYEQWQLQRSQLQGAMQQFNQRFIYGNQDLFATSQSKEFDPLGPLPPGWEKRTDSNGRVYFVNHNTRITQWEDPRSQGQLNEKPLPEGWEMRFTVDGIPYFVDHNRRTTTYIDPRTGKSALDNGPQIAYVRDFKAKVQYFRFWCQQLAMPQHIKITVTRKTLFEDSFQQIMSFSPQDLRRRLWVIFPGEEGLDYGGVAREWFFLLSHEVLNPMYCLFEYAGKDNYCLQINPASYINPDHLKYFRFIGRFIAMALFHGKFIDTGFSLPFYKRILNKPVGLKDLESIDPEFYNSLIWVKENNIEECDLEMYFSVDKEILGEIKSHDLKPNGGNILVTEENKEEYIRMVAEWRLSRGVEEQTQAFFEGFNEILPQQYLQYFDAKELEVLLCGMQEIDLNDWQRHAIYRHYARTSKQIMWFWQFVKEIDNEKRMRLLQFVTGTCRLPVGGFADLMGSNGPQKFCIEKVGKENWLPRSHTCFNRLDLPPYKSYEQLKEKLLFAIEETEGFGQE

ubiquitin charging of Itch (Itch): ubiquitin charging of Itch is observed
B1: Ndfip2: adaptor of the Ndfip family that relieves auto-inhibition of Nedd4-family E3 ligases (protein, UniProt Q9NV92 1-336, looked up)
NEDD4 family-interacting …: MARRRSQRVCASGPSMLNSARGAPELLRGTATNAEVSAAAAGATGSEELPPGDRGCRNGGGRGPAATTSSTGVAVGAEHGEDSLSRKPDPEPGRMDHHQPGTGRYQVLLNEEDNSESSAIEQPPTSNPAPQIVQAASSAPALETDSSPPPYSSITVEVPTTSDTEVYGEFYPVPPPYSVATSLPTYDEAEKAKAAAMAAAAAETSQRIQEEECPPRDDFSDADQLRVGNDGIFMLAFFMAFIFNWLGFCLSFCITNTIAGRYGAICGFGLSLIKWILIVRFSDYFTGYFNGQYWLWWIFLVLGLLLFFRGFVNYLKVRNMSESMAAAHRTRYFFLL
relief of Nedd4 auto-inhibition (Nedd4): auto-inhibition was relieved
